Data as given in PMC6237974.
pKd: −log10 of the molar value.

How the values were obtained:
[1] = test system: VgrR-P (phosphorylated by VgrS + ATP) (Xanthomonas campestris pv. campestris 8004); test: MST; conditions: MST: 50 mM Tris-HCl pH 7.4, 150 mM NaCl, 10 mM MgCl2, 0.05% Tween-20; EMSA: 10 mM Tris-HCl pH 7.5, 50 mM KCl, 1 mM DTT, 50 ng poly(dI:dC), 10 mM EDTA, 28 C
[2] = molecular target: cytoplasmic region of VgrS that contained the HAMP and transmitter regions (Xanthomonas campestris pv. campestris 8004); test: not stated; Supplementary Fig. 4b and 4c; Prc with the cytoplasmic region of VgrS
[3] = molecular target: VgrS sensor; test: SPR
[4] = molecular target: VgrS sensor (Xanthomonas campestris pv. campestris 8004); test: SPR; Biacore 3000, VgrS sensor trapped on a CM5 chip, Prc forms injected at 30 μl/min, 25 °C, PBST pH 7.4
[5] = molecular target: Prc^S475A monomer (Xanthomonas campestris pv. campestris 8004); test: SEC + AUC; Prc^S475A separated by gel filtration; sedimentation velocity of each peak at 20 °C, sodium phosphate buffer pH 8.0 plus 150 mM NaCl
[6] = molecular target: VgrS sensor (Xanthomonas campestris pv. campestris 8004); test: MST; VgrS sensor labelled with NT-647, titrated with Prc forms in NTA buffer (300 mM NaCl, 50 mM sodium phosphate, pH 7.0) with 0.05% Tween; Monolith NT.115; three replicates

PXC_3300 promoter probe showed a pKd [1] of 4.51.

In the case of “Prc (form not told, binding to the cytoplasmic region of VgrS) (enzyme)”, the pKd [2] was 3.72.

Work on Prc^S475A monomer yielded a Ka ([3]; enzyme) of 29500 M⁻¹ and a koff ([3]; enzyme) of 0.00842 s⁻¹.

In the case of Prc^S475A monomer (enzyme), the pKd [4] was 4.47, the stoichiometry N [5] was 3 and the pKd [6] was 6.19.

Substance PrcΔPDZ^S475A (enzyme) has a pKd [6] of 5.71.

In the case of “recombinant Prc^S475A containing peptidase and DUF regions”, the Ka ([3]; domain or fragment) was 44700 M⁻¹.

“recombinant Prc^S475A containing peptidase and DUF regions (domain or fragment)” was tested, and the pKd [4] was 4.65 and the pKd [6] was 6.57.
